Test results reported in patent US20230192845A1.

T1: hCD96-humanIgG1 fusion protein (human) (UniProt P40200)
T1 sequence: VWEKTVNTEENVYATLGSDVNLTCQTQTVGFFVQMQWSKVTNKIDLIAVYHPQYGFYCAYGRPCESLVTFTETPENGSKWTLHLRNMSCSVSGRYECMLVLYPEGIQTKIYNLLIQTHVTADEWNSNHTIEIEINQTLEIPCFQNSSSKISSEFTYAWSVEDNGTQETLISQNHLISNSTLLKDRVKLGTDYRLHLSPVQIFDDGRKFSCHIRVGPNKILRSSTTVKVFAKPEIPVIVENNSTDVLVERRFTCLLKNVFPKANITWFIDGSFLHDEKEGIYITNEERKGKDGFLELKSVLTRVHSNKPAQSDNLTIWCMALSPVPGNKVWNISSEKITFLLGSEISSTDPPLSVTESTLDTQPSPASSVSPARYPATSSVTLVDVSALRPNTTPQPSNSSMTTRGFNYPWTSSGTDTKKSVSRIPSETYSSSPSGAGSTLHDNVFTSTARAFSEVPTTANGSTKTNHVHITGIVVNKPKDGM


Target: T1, hCD96-humanIgG1 fusion protein (human)
Assay: SPR (Biacore), hCD96-hFc captured by anti-huFc

Kd [nM]	koff [s⁻¹]	kon [M⁻¹ s⁻¹]	Binder
0.707	9.88e-05	140000	BL006-19-134G5-134K4 (antibody, V domains shown) VH: QVQLQQPGAELVKPGASVKLSCKASDYTFTTYWMHWVKQRPGQGLEWIGMIHPNSDTTLYNEKFRSQATLTVDKSSSTAYIQLSRLTSEDSAVYYCVVTGTNFDYWGQGTTLAVSS VL: QVVLTQSPAIMSASPGEKVTMTCSATSSVSYMYWYQQKPGSSPKPWIYRTSNLASGVPVRFSGSGSGTSYSLTISSMEAEDAATYYCQQWSSNPLTFGGGTKLELK
3.5	0.000585	167000	BL006-19-363G1-363K1 (antibody, V domains shown) VH: QVQLQQPGAELVKPGASVKLSCKASGYTFTTYWIHWVKQRPGQGLEWIGMILPNSGTTIYNEKFRSQATLTVDKSSSAAYMQLSRLTSEDSAVYYCAVTGTNFDYWGQGTTLTVSS VL: QIVLTQSPAIMSASPGEKVTMTCSASSSVSYMYWYQQKPGSSPKPWIYRTSNLASGVPVRFSGSGFGTSYSLTISNMEAEDAATYYCQQWSSNPLTFGTGTKLELK
3.45	0.000501	145000	BL006-19-55G10-55K7 (antibody, V domains shown) VH: QVQLQQSGAEVVRPGTSVKMSCKAAGYTFTDNWIDWVKQRPGHGLDWIGNIFPGGNYTNYNEKFKGKATLTADTSSSTAYMQLINLTSEDSAIYYCVRAVADSQFAYWGQGTLVTVSA VL: QIVLTQSPAIMSVSPGEKVTMTCSASSRVTYMYWYQQKPGSSPKPWIYRTSNLASGVPVRFSGSGSGTSYSLTISSMEAEDAATYYCQQWSSNPLTFGAGTKLELK
3.47	0.000579	167000	BL006-11-5G1-5K3 (antibody, V domains shown) VH: EVQLVESGGGLVKPGGSLKLSCAASGFTFSSYAMSWVRQTPEKRLEWVAAINTDGASTYFPATVKDRFTISRDNAKNTLYLQMSSLRSEDTALYYCARPLEPGSWFAYWGQGTLVTVSA VL: DVLMTQTPLSLPVSLGDQASISCRSSQSIVHSNGNTYLEWYLQKPGQSPKVLIYKVSNRFSGVPDRISGSGSGTDFTLKISRVEAGDLGVYYCFQGSHVPYTFGGGTKLEIK
0.351	0.000192	548000	BL006-8-3G9-3K4 (antibody, V domains shown) VH: QVQLQQSGAELVRPGASVKLSCKASGYRFTDYEMEWVKQTPVHGLEWIGAIDPETGGTAYNQKFKGKATVTADKSSRTAYMELRSLTSEDSAVYYCTREGDGSYGAYWGQGTLVTVSA VL: DVMMTQTPLSLPVSLGDQASISCRSSQSIVYSNGNTYLEWYLQKPGQSPKLLMYKVSNRFSGVPDRFSGSGSGTDFTLKISRVEAEDLGVYYCFQGSHAPWTFGGGTKLEIK
2.97	0.000444	150000	BL006-19-190G4-190K6 (antibody, V domains shown) VH: EVQLVESGGGLVQPGGSLKLSCAASGFTFSNYGMSWVRQTPDKRLELVATINSNGGSTYYPDSVKGRFTISRDNAKNTLYLQMSSLKSEDTAMYYCTKRGAWYFDVWGTGTTVTVSS VL: DIQMTQSSSSFSVSLGDRVTITCKASEDIYNRLAWYQQKPGNAPRLLISSATSLETGVSSRFSGSGSGKDYTLSITSLQTEDVATYYCQQYWTTPTWTFGGGTKLEIK
0.182	0.000163	896000	BL006-19-29G5-29K1 (antibody, V domains shown) VH: QVTLKESGPGILQSSQTLSLTCSFSGFSLSTFGMGVSWIRKPSGKGLEWLAHIFWDDDKRYNPSLKSRLTISKDTSSNQVFLMINSMDIADTATYYCTRGSNWFAYWGQGTLVTVSA VL: DIVLTQSPASLAVSLGQRATISCRASESVDSYGNSFMHWYQQKPGQPPKLLIYRASNLESGIPARFSGSGSRTDFTLTINPVEADDVATYYCQQSNEDPLTFGAGTKLELK
6.75	0.000988	146000	BL006-19-21G1-21K1 (antibody, V domains shown) VH: QVQLQQPGAELVKPGASVKMSCKASGYTFISYWITWVKQRPGQGLEWIGDIYPGSGHTNYNEKFKSKATLTVDTSSSTAYMQLSSLTSEDSAVYYCARPTVEAMDYWGQGTSVTVSS VL: QIVLTQSPAIMSASPGEKVTMTCSASSSVNYMHWYQQRSGTSPKRWIYDTSKLASGVPARFSGSGSGTSYSLTISSMEAEDAATYYCQQWSNNPLTFGAGTKLELK
42.3	0.00193	45500	BL006-19-370G9-370K16 (antibody, V domains shown) VH: QVQLQQSGAELGRPGTSVKMSCKAAGYTFTNYWIGWVKQRPGHGLEWIGDIYPGGGYTNYNEKFKGKATLTADTSSSTAYIQLSSLTSEDSAIYYCARSGYYDGSPLAMDYWGQGTSVTVS VL: QIVLTQSPTIMSASPGEKVTMTCSASSSVSYMHWYQQKSGTSPKRWIYDTSKLASGVPARFSGSGSGTSYSLTISSMEAEDAATYYCQQWSSNPPTFGSGTKLEIK
23.4	0.000796	34100	BL006-19-352G9-352K8 (antibody, V domains shown) VH: QVQLQQPGAELVKPGASVKLSCKASGYTFTSYWMHWVKQRPGQGLEWIGMIHPNGDITDYNEKFKSKATLAVDESSSTAFMQLNSLTSEDSAFYYCARASYYGSLYWGQGTTLTVSS VL: DIVMTQSQKFMSTSVGDRVSVTCKASQNVGIAVAWYQKKPGQSPKTLIYSASTRYTGVPDRFTGSGSGTDFTLTINDVQSEDLADYFCQQYGSSPLTFGAGTKLELK
13.2	0.0007	53100	BL006-4-31G1-31K3 (antibody, V domains shown) VH: QVQLQQSGPELVKPGASVKISCKTSGFTFTDYYINWVKQRPGQGLEWIGWIFPGSGSSFYSEIFKGQATLTVDKSSSTAYMLLSSLTSEDSAVYFCARRNYYGYGAYAMDYWGQGTSVTVSS VL: DIQMNQSPSSLSASLGDTITITCRASQSINFWLSWYQQKPGNIPKLLIYKASNLHTGVPSRFSGSGSGTDFTLTISSLQPEDIATYYCLQGQSYPLTFGGGTKLEIK
0.198	0.00016	810000	BL006-9-1G1-1K1 (antibody, V domains shown) VH: EVKLVESGGGLVKPGGSLKLSCAASGFTFSSYAMSWVRQTPERGLEWVAAIQSNGGSTFYPDTVKDRFTISRDNAKNTLYLQMSSLRSEDTALYYCVRGPFDYWGQGTTLTVSS VL: QIVLTQSPAIMSASPGQKVTIPCSASSSVNYIHWFQQKLGSSPKLWIYDTSKLTPGVPARFSGSGSGTSYSLTISSMEAEDAASYFCHQWRSYPPTFGGGTKLEIK
2.83	0.000363	128000	BL006-4-52G6-52K7 (antibody, V domains shown) VH: QVQLQQPGAELVKPGASVKLSCKASGYSFTSYWMHWVKQRPGQGLEWIGQIDPSDSYTNYNQKFKGKATLTVDKSSSTAYMQLSSLTSEDSAVYYCASGNYGPYLGNYFDYWGQGTTLTVPS VL: DIVMSQSPSSLVVSVGEKVTMSCKSSQSLLHSTNQKNYLAWYQQKPGQSPKLLIYWASTRESGVPDRFTGSGSGTDFTLTISSVKAEDLVVYYCQQYYNYPYTFGGGTKLEIK
0.45	0.000296	656000	BL006-19-183G3-183K4 (antibody, V domains shown) VH: QVTLNESGPGILQPSQTLSLTCSFSGFSLTTYGMGVGWIRQPSGKSLEWLANIWWTEDKYYNSALKSRLTISTDTSHNQVFLKISSVDTEDTATYYCAQMGPEVYSAMDYWGQGTSVTVSS VL: DIVMTPSQKFMSTTVGDRVSITCKASQNVGTAVAWYQQKPGHSPKLLIYSASNRNTGVPDRFTGSGSGTDFTLTISNMQSEDLADYFCHQYSRYPWTFGGGTKLEIK
0.825	0.00057	691000	BL006-4-20G5-20K5 (antibody, V domains shown) VH: EVQLAESGGDLVTPGGSLKLSCAASGFTFSSYGMSWVRQTPDKRLEWVATITHGGSYIYYPDSVKGRFTLSRDNAKNTLYLQMSSLKSEDTAMYYCIRHADYARFAYWGQGTLVTVSA VL: DIQMTQTTSSLSASLGDRVTISCRPSQDISNYLNWYQQKPDGTVKLLIYYTSRLHSGVPSRFSGSGSGTDYSLTISNLEQEDIATYFCQQGNTLPWTFGGGTKLEIK
0.364	0.000153	420000	BL006-4-61G5-61K1 (antibody, V domains shown) VH: EVKLEESGGGLVQPGGSMKLSCVASGFTFSNYWMNWVRQSPEKGLEWVAQIRFKSDNYATHYAESVKGRFTISRDDSKSSVYLQMHNLRAEDTGIYYCTEFAYWGQGTLVTVSA VL: QILLTQSPAIMSASPGEKVTMTCSASSRVNSRFLNWYQQKSGVSPKLWIYGTSNLASGVPARFSGSGSGTSYSLTISSVEAEDVATYYCQQYQSDPPITFGAGTRLELI
4.6	0.00275	598000	BL006-9-15G1-15K5 (antibody, V domains shown) VH: QAYLQQSGAELVRPGASVKMSCKASGYTFTSYNMHWVKQTPRQGLEWIGAVIPGNGDSFYNQKFKGKATLTVDKSSSTAYMQLSSLTSEDSAVYFCGRSSSGCIAYWGQGTLVTVSA VL: DIVLTQSPASLAVSLGQRATISCRVSGSVDYDGDSYMNWYQQKPGQPPKLLIYAASNLESGIPARFSGSGSETDFTLNIHPVEEEDAATYYCLQSNEAPWTFGGGTKVEIK
